The series in a line: yeast display, Sf9 membrane polyspecificity reagent, FACS + sequencing; frameworks hold sequencing errors. The method, boiled down:
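Polyreactivity labels are assigned by the sorting gate from which each nanobody was recovered. The gates were low and high (top ~1%), set on anti-HA fluorescence for expression and streptavidin fluorescence for reagent binding. Before sorting, galactose-induced (36–48 hours) yeast display cells were stained for 1 hour at 4 °C with 10% biotinylated, detergent-solubilized Sf9 membrane reagent.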
Turning to “QVQLVESGGGLVQAGGSLRISCAASGSTFDRNAMGWYRQPPGKERELVAAISSSGGRTYYADSVKGRFTISRDNAKNTVYLQMNSLKPEDTPVYYCAAAFSLGMYWGKGTQVTVSS”, the “polyreactivity (PSR sort gate)” value is listed as “high polyreactivity”.

Turning to “QVQLVESGGGLVQAGGSLRISCAASGSTFKGYAMGWYRQSPGKERELVAAISRSGTRTYYADSVKVRFTISRDTAKNTVYLQMNSLNPEDTAVYSCNKDTGYIAHDNENGRDYWGQGTQVTVSS”, the “polyreactivity (PSR sort gate)” value is given as “low polyreactivity”.

Turning to “QVQLVESGGGLVQAGGSLRISCAASGSTFKRNVMGWYRQAPGKERELVAAISRTDGRTYYADSVKGRFTISRDNAKNSVYLEMNSLKPEDTAVYYCAATTGHRTYRYYYWGHGTQVTVSS”, the “polyreactivity (PSR sort gate)” value is recorded as “high polyreactivity”.

In the case of “QVQLVESGGGLVQAGGSLRISCAASGSTFRGYAMGGYRQAPGKERDLVAAMSSNGDRTFYADSVKGRFTISRDNAMNTVYLLMNSLKAEDTAVYYCNAVYSGSWQLYGYWGQGSQVTVSS”, the “polyreactivity (PSR sort gate)” value is “high polyreactivity”.

With “QVQLVESGGGLVQAGGSLRISCAASGSTFRRYAMGWYRQAPGKEREFVAVITSSGVITYYADSVKGRFTISRDNAKNTVYLQMNSLKPEDTAVYYCATDARSMDYWGQGTQVTVSS”, the “polyreactivity (PSR sort gate)” value is “low polyreactivity”.

With “QVQLVESGGGLVQAGGSLRISCAASGSTFSYYAMGWYRQAPGKERELVAAISSRGGSTYYADSVKGRFTISRDNAKNTVYLQMNSLKPEDTAVYYCAAVRNRHGYDYWGQGTQVTVSS”, the “polyreactivity (PSR sort gate)” value was “high polyreactivity”.

On to “QVQLVESGGGLVQAGGSLRISCAASGSTFYHNVMGWYRPAPGKERELVASIDTGDSTNYADSVKGRFTISLDNAKNTVYLQMNSLKPEDTAVYYCNADSYPALNKRGYDYWGQGTQVTVSA”, for which the “polyreactivity (PSR sort gate)” value is listed as “low polyreactivity”.

Turning to “QVQLVESGGGLVQAGGSLRISCAASGSTIQQYAMGRYRQAPGKEREFVAAISWRGGRTYYADSVKGRFTISRDNAKNTVYLQMNSLKPEDTAVYYCAVDPSIYRLSAYYYDYWGQGTQVTVSS”, the “polyreactivity (PSR sort gate)” value is listed as “low polyreactivity”.

Consider “QVQLVESGGGLVQAGGSLRISCAASGYTFPFYTMGWYRQAPGKERELVAAINSGGSTYYADSVKGRFTISRDNAKNTVYLQMNRLKPEDTAVYYCAVEGGFRVRYQAQYRFYYWGQGTEVTVSS”, for which the “polyreactivity (PSR sort gate)” value was “high polyreactivity”.

For “QVQLVESGGGLVQAGGSLRISCAASVSIFPGYAMGWSRQAPGKERELVATITWSGGSTYYADSVKGRFTISRDNAKNTVYLQMNSLKPEDTAVYYCNADSNWYYQWNYYCLYDYWGQGTQVTVSS”, the “polyreactivity (PSR sort gate)” value is “low polyreactivity”.

“QVQLVESGGGLVQAGGSLRISCAAYGSTIVTNAMGWYRQAPVKERELVAASTSGAGTYYADSVKGRFTISRDNAKNTVYLQMNCLKTEDTAVYYCAARRYYSSGRYRFGYWGQGSQVTVSS”: the “polyreactivity (PSR sort gate)” value is recorded as “high polyreactivity”.

Turning to “QVQLVESGGGLVQAGGSLRISCADSGSIFSLYAMGWYRPAAGKERELVAAIRRGGSTYYADSVKGRFTISRDNAKNTVYLQMNSLIPEDTAVYYCAADAYSGYSDYYWGQGTHVTVSS”, the “polyreactivity (PSR sort gate)” value is recorded as “low polyreactivity”.

On to “QVQLVESGGGLVQAGGSLRISCADSGSIFTYNAMGWYRQAPGKERELVAAITSSSGSSTYADSVKGRFTISRDNAKYTVYLQMNSLKPEDTAVYYCAAPILSFPSPYVQYDYWGQGTQVTVSS”, for which the “polyreactivity (PSR sort gate)” value is on record as “low polyreactivity”.

In the case of “QVQLVESGGGLVQAGGSLRISCAPSGIIFYQNTMGWYRQAPGKERELVATITKRGGSSYYADSVKGRFTISRDNAKNTVYLQMNSLKPEDTAVYYCNAAKYAASYIGYGYWGQGTQVTVSS”, the “polyreactivity (PSR sort gate)” value is on record as “high polyreactivity”.

Consider “QVQLVESGGGLVQAGGSLRISCAPSGRIFNINEMGWYRPARGKEREWVARITTGGRTNYADSVKGRFTISRDNAKNTFYLQMNSLKPADTAVYYCAARTYGQLGDYWGQGTQVTVSS”, for which the “polyreactivity (PSR sort gate)” value is listed as “high polyreactivity”.

Take “QVQLVESGGGLVQAGGSLRISCASSGFTFSQYAMGWYRQAPGKERELVAAISSSGGRTYYADSVKGRFTISRDNAKNTVYLQMKSLKPEDTAFFYCAAPGAQGLGLRGAGLDYWGQGTQVTVSS”: the “polyreactivity (PSR sort gate)” value was “high polyreactivity”.

“QVQLVESGGGLVQAGGSLRISCDASGSTFVANAMRSYREAPGKERELLAAISRSGGRTYYADSVKGRFTISRDNAKYTVYFQMNSLKPEDTAVYYCAADGYRSPVYANWGMGYWGQGSQVTVSS”: the “polyreactivity (PSR sort gate)” value is on record as “high polyreactivity”.

Consider “QVQLVESGGGLVQAGGSLRISCDASGYIFGWNSMGWYRQAPGKERELVAAISSSGGNTYYADSVKGRFTISRDNAKNTVYLQMNSLKPEDTAVYYCARSYPYRYDYWGQGTQVTVSS”, for which the “polyreactivity (PSR sort gate)” value is recorded as “low polyreactivity”.

As to “QVQLVESGGGLVQAGGSLRISSAASGRIFTPYVMGWYRQAPGKERELVADINLSGDSTSYADSVKGRFTITRDNAKNTVYLQMNSLKPEDTAVYYCNADSYIYVGNDQYDYWGQGTQVTVSS”, the “polyreactivity (PSR sort gate)” value was “low polyreactivity”.

On to “QVQLVESGGGLVQAGGSLRISSAASGRTFFTNAKGWYRQAPGKERELVAVITYRGDSTYADSVKGRFTISRDNAKNTVYLQMNSLKPEDTAVYYCNAEFRGGRWFTYDYWGHGTQVTVSS”, for which the “polyreactivity (PSR sort gate)” value is given as “low polyreactivity”.

As to “QVQLVESGGGLVQAGGSLRISSAAYGRIIYGYAMGWYRQAPGKERELVAAITWRGTSTYYADSVKGRFTISRDNAKNTVYLQMNCLKPEDTAVYYCNAVRSLAYWGQGTQVTVSS”, the “polyreactivity (PSR sort gate)” value is reported as “high polyreactivity”.

In the case of “QVQLVESGGGLVQAGGSLRITCAASGSIFGTNAMGWYRQAPGKERELVAAIDGGSTTYYADCVKGRFTISRDNAKNTVYLQMNSLKPEDTAVYYCAADGTRYLNYEGYAGYEYWGQGTQETVSS”, the “polyreactivity (PSR sort gate)” value is recorded as “low polyreactivity”.

On to “QVQLVESGGGLVQAGGSLRITCAASGSIFYSNVMGWSRPAPGKERELVARITDAGSTNYADSVKGRFTISRDYAKNTVYLQMYSLKPEDTAVYYCIARLVIYTYDYWGQGTQVTVSS”, for which the “polyreactivity (PSR sort gate)” value is “low polyreactivity”.

For “QVQLVESGGGLVQAGGSLRITCAASGSNFTYNAMGRYREAPGKERELVAAIDWDGDTTYYADSVKGRFTISRDNAKNTVYLQMNSLKPEDTAVYYCAAEFYSLGKAIYEYWGQGTQVTLSS”, the “polyreactivity (PSR sort gate)” value was “high polyreactivity”.

Turning to “QVQLVESGGGLVQAGGSLRLAVLPPDLPSTLNDMGWYRQAPGKERELVAAITRGGSTNYADSLKGRFTISRDNAKNTVYLQMNSLKPEDSAVYYCAAPYAGWGDGGDYWGQGTQVTVSS”, the “polyreactivity (PSR sort gate)” value is given as “low polyreactivity”.

Consider “QVQLVESGGGLVQAGGSLRLAVLPPDLPSTLNDMGWYRQAPGKERELVAAITRGGSTNYADSVKGRFTISRDNAKNTVYLQMNSLKPEDTAVYYCAAPYAGWRDGGDYWGQGTQVTVSS”, for which the “polyreactivity (PSR sort gate)” value is reported as “low polyreactivity”.

In the case of “QVQLVESGGGLVQAGGSLRLCCAASGIIFYSYAMGWYRQAPGKEREFVAAITNSDGSTYYADSVKGRFTISRDNAKNTVYLQMNSVKPEDTAVYMFYWGQGTQVTVSS”, the “polyreactivity (PSR sort gate)” value is “low polyreactivity”.

Take “QVQLVESGGGLVQAGGSLRLCCAASGRIFDYNAMGLYRQAPGKERELVAAINSGGSTYADSVKGRFTISRDNAKNTVYLQMNSLKPEDTAVYYCANSLGQTDWEYDSWGQGTQVTVSS”: the “polyreactivity (PSR sort gate)” value is given as “low polyreactivity”.

For the sequence “QVQLVESGGGLVQAGGSLRLCCAASGSIFLLNAMGWYRQAPGKERELVAAISWGGGSTYYADSVKGRFTISRDNAKNTVYLQMNSLKPEDTAVYYCNASVTLGLEVDYSGQGTQVTVSS”, the “polyreactivity (PSR sort gate)” value is on record as “low polyreactivity”.

Turning to “QVQLVESGGGLVQAGGSLRLICAAAGRIVSYYTMGWYRQAPGKERELVAAISSGGSTNYADSVKGRFTISRDNAKNTVYLQMNSLKPEDTAVYYCAVRCGRRNYDRPAFGYWGQGTQVTVSS”, the “polyreactivity (PSR sort gate)” value is “high polyreactivity”.

The values above are taken from the nanobody polyreactivity screen of Harvey et al. (2022).
